B1: Transcription factor p65 (Mus musculus), Q04207 (parent)
chain: MDDLFPLIFPSEPAQASGPYVEIIEQPKQRGMRFRYKCEGRSAGSIPGERSTDTTKTHPTIKINGYTGPGTVRISLVTKDPPHRPHPHELVGKDCRDGYYEADLCPDRSIHSFQNLGIQCVKKRDLEQAISQRIQTNNNPFHVPIEEQRGDYDLNAVRLCFQVTVRDPAGRPLLLTPVLSHPIFDNRAPNTAELKICRVNRNSGSCLGGDEIFLLCDKVQKEDIEVYFTGPGWEARGSFSQADVHRQVAIVFRTPPYADPSLQAPVRVSMQLRRPSDRELSEPMEFQYLPDTDDRHRIEEKRKRTYETFKSIMKKSPFNGPTEPRPPTRRIAVPTRNSTSVPKPAPQPYTFPASLSTINFDEFSPMLLPSGQISNQALALAPSSAPVLAQTMVPSSAMVPLAQPPAPAPVLTPGPPQSLSAPVPKSTQAGEGTLSEALLHLQFDADEDLGALLGNSTDPGVFTDLASVDNSEFQQLLNQGVSMSHSTAEPMLMEYPEAITRLVTGSQRPPDPAPTPLGTSGLPNGLSGDEDFSSIADMDFSALLSQISS

The variants in assay [1] derive from B1. The conditions noted are these: with cbp_mouse Crebbp.
Assay [2] covers variants of B1. The conditions noted are these: with ep300_mouse Ep300, B2RWS6.
ep300_mouse Ep300, B2RWS6, sequence (B2RWS6 whole entry): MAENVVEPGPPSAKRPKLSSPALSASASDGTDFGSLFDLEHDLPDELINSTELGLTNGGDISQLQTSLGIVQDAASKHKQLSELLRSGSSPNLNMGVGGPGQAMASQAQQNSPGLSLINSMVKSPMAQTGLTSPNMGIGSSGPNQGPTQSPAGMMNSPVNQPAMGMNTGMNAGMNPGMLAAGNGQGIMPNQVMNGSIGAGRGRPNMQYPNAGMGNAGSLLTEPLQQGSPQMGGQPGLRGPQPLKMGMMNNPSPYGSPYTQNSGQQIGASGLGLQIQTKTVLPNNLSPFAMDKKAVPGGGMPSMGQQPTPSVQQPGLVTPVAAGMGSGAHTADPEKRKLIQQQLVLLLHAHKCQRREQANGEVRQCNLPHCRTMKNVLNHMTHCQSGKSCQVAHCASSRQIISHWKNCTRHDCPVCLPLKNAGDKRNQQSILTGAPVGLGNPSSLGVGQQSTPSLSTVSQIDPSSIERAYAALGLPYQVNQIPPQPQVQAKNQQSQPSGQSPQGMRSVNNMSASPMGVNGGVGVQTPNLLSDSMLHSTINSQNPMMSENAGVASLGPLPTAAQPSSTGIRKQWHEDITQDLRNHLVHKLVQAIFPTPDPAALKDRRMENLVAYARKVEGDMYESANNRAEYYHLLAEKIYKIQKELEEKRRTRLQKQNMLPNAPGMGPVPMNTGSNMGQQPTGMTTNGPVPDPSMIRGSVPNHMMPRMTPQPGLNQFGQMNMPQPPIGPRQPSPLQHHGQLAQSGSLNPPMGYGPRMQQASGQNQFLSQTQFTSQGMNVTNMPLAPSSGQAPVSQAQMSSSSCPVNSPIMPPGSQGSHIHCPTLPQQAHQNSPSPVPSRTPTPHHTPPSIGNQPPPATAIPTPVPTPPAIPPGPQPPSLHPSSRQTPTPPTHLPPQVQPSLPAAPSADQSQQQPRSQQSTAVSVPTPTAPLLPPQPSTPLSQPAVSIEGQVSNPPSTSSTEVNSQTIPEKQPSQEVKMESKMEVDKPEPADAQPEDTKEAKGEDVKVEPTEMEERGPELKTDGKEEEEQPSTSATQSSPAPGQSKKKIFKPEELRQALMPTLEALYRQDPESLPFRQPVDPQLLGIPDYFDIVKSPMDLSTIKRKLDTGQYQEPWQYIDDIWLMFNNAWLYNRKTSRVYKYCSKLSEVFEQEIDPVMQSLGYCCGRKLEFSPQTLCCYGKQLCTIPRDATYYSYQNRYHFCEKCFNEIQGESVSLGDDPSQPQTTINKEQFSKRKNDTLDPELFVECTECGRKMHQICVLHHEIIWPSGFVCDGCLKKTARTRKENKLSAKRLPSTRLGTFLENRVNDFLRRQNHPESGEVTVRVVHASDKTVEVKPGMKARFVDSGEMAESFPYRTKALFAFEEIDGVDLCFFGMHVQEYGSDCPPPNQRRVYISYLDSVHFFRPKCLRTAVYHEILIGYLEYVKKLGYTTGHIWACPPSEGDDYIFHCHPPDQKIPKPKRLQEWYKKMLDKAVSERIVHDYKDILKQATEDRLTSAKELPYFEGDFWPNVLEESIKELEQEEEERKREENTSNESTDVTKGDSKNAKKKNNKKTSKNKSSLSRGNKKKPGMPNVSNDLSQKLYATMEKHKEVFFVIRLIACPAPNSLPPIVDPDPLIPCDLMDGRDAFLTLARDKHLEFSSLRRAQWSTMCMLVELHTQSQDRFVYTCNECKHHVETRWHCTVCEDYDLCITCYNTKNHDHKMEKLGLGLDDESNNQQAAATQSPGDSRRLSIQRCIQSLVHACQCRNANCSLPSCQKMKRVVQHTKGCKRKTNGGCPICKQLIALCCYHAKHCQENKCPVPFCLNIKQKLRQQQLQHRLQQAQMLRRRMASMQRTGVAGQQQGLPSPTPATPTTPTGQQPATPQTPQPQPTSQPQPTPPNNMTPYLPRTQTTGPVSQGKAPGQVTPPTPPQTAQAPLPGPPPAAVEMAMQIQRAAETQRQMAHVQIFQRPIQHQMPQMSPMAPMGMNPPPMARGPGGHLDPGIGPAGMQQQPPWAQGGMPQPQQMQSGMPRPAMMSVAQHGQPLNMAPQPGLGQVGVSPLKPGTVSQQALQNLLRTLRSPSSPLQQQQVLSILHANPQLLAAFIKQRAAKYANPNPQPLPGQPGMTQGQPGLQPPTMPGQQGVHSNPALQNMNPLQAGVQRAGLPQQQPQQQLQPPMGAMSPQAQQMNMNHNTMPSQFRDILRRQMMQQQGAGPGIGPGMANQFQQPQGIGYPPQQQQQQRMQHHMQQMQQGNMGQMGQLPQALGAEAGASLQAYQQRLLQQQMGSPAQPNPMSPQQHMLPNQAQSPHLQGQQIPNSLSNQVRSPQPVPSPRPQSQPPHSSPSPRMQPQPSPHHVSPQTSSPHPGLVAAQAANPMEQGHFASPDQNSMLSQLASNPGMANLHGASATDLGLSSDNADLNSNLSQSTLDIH
The variants in assay [3] derive from B1. As to conditions: with cbp_mouse Crebbp. This is another data set of the same source.
In assay [4] the parent is B1. The conditions noted are these: with cbp_mouse Crebbp. The source holds these as a separate data set.

cbp_mouse Crebbp, P45481, sequence (P45481 whole entry): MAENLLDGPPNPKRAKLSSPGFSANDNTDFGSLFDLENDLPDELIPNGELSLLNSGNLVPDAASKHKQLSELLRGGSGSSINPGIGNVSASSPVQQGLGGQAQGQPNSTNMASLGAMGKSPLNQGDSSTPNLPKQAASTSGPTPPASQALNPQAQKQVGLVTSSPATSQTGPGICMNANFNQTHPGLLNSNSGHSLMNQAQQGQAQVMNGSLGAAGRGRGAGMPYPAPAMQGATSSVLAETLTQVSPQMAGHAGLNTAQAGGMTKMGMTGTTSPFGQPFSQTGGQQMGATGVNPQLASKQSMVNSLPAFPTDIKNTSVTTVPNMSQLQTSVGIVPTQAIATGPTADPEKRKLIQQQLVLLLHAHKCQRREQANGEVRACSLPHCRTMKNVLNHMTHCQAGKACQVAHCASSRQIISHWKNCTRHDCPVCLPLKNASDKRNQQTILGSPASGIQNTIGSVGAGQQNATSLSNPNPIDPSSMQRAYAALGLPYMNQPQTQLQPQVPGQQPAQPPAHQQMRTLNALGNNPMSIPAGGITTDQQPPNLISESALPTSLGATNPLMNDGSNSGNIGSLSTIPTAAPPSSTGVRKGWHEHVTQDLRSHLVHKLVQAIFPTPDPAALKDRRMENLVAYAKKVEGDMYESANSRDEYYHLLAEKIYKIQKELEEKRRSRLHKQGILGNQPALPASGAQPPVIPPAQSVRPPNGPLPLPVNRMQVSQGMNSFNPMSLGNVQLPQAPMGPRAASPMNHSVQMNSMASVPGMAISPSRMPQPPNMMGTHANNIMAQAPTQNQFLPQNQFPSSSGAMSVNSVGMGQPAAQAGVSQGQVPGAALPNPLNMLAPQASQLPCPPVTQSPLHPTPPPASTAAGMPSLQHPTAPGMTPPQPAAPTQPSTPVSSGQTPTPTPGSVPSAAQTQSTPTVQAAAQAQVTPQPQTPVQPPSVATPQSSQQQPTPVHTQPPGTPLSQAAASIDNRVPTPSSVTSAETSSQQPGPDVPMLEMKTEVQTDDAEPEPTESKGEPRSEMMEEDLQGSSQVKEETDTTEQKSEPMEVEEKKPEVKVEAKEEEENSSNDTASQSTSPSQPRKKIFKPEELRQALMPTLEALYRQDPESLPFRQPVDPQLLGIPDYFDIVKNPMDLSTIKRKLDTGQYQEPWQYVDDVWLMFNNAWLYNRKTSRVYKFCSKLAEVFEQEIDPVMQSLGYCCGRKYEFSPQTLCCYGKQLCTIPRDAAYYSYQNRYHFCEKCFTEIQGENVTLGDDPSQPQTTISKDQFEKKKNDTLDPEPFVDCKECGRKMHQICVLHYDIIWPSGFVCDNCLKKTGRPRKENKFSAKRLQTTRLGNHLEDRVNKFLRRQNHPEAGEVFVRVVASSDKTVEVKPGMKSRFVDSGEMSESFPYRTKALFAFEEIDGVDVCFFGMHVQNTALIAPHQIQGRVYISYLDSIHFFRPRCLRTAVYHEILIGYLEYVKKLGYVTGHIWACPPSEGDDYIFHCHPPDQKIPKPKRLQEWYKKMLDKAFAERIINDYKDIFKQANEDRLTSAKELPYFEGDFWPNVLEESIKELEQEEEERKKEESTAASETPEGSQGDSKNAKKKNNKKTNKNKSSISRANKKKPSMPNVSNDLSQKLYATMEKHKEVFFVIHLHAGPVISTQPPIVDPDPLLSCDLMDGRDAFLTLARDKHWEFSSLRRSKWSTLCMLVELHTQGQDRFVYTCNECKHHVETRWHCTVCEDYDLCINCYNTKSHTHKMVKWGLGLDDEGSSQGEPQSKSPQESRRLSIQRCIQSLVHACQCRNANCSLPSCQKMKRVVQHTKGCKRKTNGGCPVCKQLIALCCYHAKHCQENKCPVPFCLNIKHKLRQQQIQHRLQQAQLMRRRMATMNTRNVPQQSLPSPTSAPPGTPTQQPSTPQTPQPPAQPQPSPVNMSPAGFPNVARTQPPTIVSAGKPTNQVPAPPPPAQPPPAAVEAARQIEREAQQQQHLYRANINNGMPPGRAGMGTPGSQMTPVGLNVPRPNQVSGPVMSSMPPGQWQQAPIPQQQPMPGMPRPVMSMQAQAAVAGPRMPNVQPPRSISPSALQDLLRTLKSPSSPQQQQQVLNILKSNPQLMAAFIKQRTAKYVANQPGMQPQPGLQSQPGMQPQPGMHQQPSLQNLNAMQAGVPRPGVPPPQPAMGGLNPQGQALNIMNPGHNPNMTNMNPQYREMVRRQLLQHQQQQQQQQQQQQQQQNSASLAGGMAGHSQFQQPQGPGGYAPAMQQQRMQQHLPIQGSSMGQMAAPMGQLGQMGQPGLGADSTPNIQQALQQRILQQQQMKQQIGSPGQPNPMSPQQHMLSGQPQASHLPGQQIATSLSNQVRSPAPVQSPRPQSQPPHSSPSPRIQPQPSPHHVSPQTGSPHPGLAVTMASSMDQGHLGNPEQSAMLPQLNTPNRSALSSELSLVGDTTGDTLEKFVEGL

Consider MDDLFPLIFPSEPAQASGPYVEIIEQPKQRGMRFRYKCEGRSAGSIPGERSTDTTKTHPTIKINGYTGPGTVRISLVTKDPPHRPHPHELVGKDCRDGYYEADLCPDRSIHSFQNLGIQCVKKRDLEQAISQRIQTNNNPFHVPIEEQRGDYDLNAVRLCFQVTVRDPAGRPLLLTPVLSHPIFDNRAPNTAELKICRVNRNSGSCLGGDEIFLLCDKVQKEDIEVYFTGPGWEARGSFSQADVHRQVAIVFRTPPYADPSLQAPVRVSMQLRRPSDRELSEPMEFQYLPDTDDRHRIEEKRKRTYETFKSIMKKSPFNGPTEPRPPTRRIAVPTRNSTSVPKPAPQPYTFPASLSTINFDEFSPMLLPSGQISNQALALAPSSAPVLAQTMVPSSAMVPLAQPPAPAPVLTPGPPQSLSAPVPKSTQAGEGTLSEALLHLQFDADEDLGALLGNSTDPGVFTDLAAVDNSEFQQLLNQGVSMSHSTAEPMLMEYPEAITRLVTGSQRPPDPAPTPLGTSGLPNGLSGDEDFSSIADMDFSALLSQISS [S467A], for which the “effect of a mutation on the interaction” value with cbp_mouse Crebbp, P45481 [1] is on record as “decreasing interaction strength”; in assay [2] it was “decreasing interaction strength”.

For MDDLFPLIFPSEPAQASGPYVEIIEQPKQRGMRFRYKCEGRSAGSIPGERSTDTTKTHPTIKINGYTGPGTVRISLVTKDPPHRPHPHELVGKDCRDGYYEADLCPDRSIHSFQNLGIQCVKKRDLEQAISQRIQTNNNPFHVPIEEQRGDYDLNAVRLCFQVTVRDPAGRPLLLTPVLSHPIFDNRAPNTAELKICRVNRNSGSCLGGDEIFLLCDKVQKEDIEVYFTGPGWEARGSFSQADVHRQVAIVFRTPPYADPSLQAPVRVSMQLRRPSDRELSEPMEFQYLPDTDDRHRIEEKRKRTYETFKSIMKKSPFNGPTEPRPPTRRIAVPTRNSTSVPKPAPQPYTFPASLSTINFDEFSPMLLPSGQISNQALALAPSSAPVLAQTMVPSSAMVPLAQPPAPAPVLTPGPPQSLSAPVPKSTQAGEGTLSEALLHLQFDADEDAGALLGNSTDPGVFTDLASVDNSEFQQLLNQGVSMSHSTAEPMLMEYPEAITRLVTGSQRPPDPAPTPLGTSGLPNGLSGDEDFSSIADMDFSALLSQISS [L449A], the “effect of a mutation on the interaction” value in the assay with cbp_mouse Crebbp, P45481 [3] is “disrupting interaction strength”; in the assay with cbp_mouse Crebbp, P45481 [4] it was “decreasing interaction strength”.

In the case of MDDLFPLIFPSEPAQASGPYVEIIEQPKQRGMRFRYKCEGRSAGSIPGERSTDTTKTHPTIKINGYTGPGTVRISLVTKDPPHRPHPHELVGKDCRDGYYEADLCPDRSIHSFQNLGIQCVKKRDLEQAISQRIQTNNNPFHVPIEEQRGDYDLNAVRLCFQVTVRDPAGRPLLLTPVLSHPIFDNRAPNTAELKICRVNRNSGSCLGGDEIFLLCDKVQKEDIEVYFTGPGWEARGSFSQADVHRQVAIVFRTPPYADPSLQAPVRVSMQLRRPADRELSEPMEFQYLPDTDDRHRIEEKRKRTYETFKSIMKKSPFNGPTEPRPPTRRIAVPTRNSTSVPKPAPQPYTFPASLSTINFDEFSPMLLPSGQISNQALALAPSSAPVLAQTMVPSSAMVPLAQPPAPAPVLTPGPPQSLSAPVPKSTQAGEGTLSEALLHLQFDADEDLGALLGNSTDPGVFTDLASVDNSEFQQLLNQGVSMSHSTAEPMLMEYPEAITRLVTGSQRPPDPAPTPLGTSGLPNGLSGDEDFSSIADMDFSALLSQISS [S276A], the “effect of a mutation on the interaction” value with cbp_mouse Crebbp, P45481 [1] was “decreasing interaction strength”; in assay [2] it was “decreasing interaction strength”.

In the case of MDDLFPLIFPSEPAQASGPYVEIIEQPKQRGMRFRYKCEGRSAGSIPGERSTDTTKTHPTIKINGYTGPGTVRISLVTKDPPHRPHPHELVGKDCRDGYYEADLCPDRSIHSFQNLGIQCVKKRDLEQAISQRIQTNNNPFHVPIEEQRGDYDLNAVRLCFQVTVRDPAGRPLLLTPVLSHPIFDNRAPNTAELKICRVNRNSGSCLGGDEIFLLCDKVQKEDIEVYFTGPGWEARGSFSQADVHRQVAIVFRTPPYADPSLQAPVRVSMQLRRPSDRELSEPMEFQYLPDTDDRHRIEEKRKRTYETFKSIMKKSPFNGPTEPRPPTRRIAVPTRNSTSVPKPAPQPYTFPASLSTINFDEFSPMLLPSGQISNQALALAPSSAPVLAQTMVPSSAMVPLAQPPAPAPVLTPGPPQSLSAPVPKSTQAGEGTLSEALLHLQFDADEDLGALLGNSTDPGVFTDLASVDNSEAQQLLNQGVSMSHSTAEPMLMEYPEAITRLVTGSQRPPDPAPTPLGTSGLPNGLSGDEDFSSIADMDFSALLSQISS [F473A], the “effect of a mutation on the interaction” value in the assay with cbp_mouse Crebbp, P45481 [3] is given as “disrupting interaction strength”.

As to MDDLFPLIFPSEPAQASGPYVEIIEQPKQRGMRFRYKCEGRSAGSIPGERSTDTTKTHPTIKINGYTGPGTVRISLVTKDPPHRPHPHELVGKDCRDGYYEADLCPDRSIHSFQNLGIQCVKKRDLEQAISQRIQTNNNPFHVPIEEQRGDYDLNAVRLCFQVTVRDPAGRPLLLTPVLSHPIFDNRAPNTAELKICRVNRNSGSCLGGDEIFLLCDKVQKEDIEVYFTGPGWEARGSFSQADVHRQVAIVFRTPPYADPSLQAPVRVSMQLRRPSDRELSEPMEFQYLPDTDDRHRIEEKRKRTYETFKSIMKKSPFNGPTEPRPPTRRIAVPTRNSTSVPKPAPQPYTFPASLSTINFDEFSPMLLPSGQISNQALALAPSSAPVLAQTMVPSSAMVPLAQPPAPAPVLTPGPPQSLSAPVPKSTQAGEGTLSEALLHLQFDADEDLGALLGNSTDPGVFTDAASVDNSEFQQLLNQGVSMSHSTAEPMLMEYPEAITRLVTGSQRPPDPAPTPLGTSGLPNGLSGDEDFSSIADMDFSALLSQISS [L465A], the “effect of a mutation on the interaction” value is listed as “disrupting interaction strength” with cbp_mouse Crebbp, P45481 [3] and “decreasing interaction strength” with cbp_mouse Crebbp, P45481 [4].

The values are drawn from IntAct's records for PubMed 24019758.
